± gives the uncertainty stated by the source.

This data set in a line: self-splicing fitness, log relative to wild type (ln ratio); higher = more splicing; Tetrahymena group I intron in knt gene, E. coli kanamycin selection, DiMSum; sequences stand for … in CUCUCU…GGAGGGAAAAGUUAUCAGGCAUGCACCUGGUAGCUAGUCUUUAAACCAAUAGAUUGCAUCGGUUUAAAAGGCAAGACCGUCAAAUUGCGGGAAAGGGGUCAACAGCCGUUCAGUACCAAGUCUCAGGGGAAACUUUGAGAUGGCCUUGCAAAGGGUAUGGUAAUAAGCUGACGGACAUGGUCCUAACCACGCAGCCAAGUCCUAAGUCAACAGAUCUUCUGUUGAUAUGGAUGCAGUUCACAGACUAAAUGUCGGUCGGGGAAGAUGUAUUCUUCUCAUAAGAUAUAGUCGGACCUCUCCUUAAUGGGAGCUAGCGGAUGAAGUGAUGCAACACUGGAGCCGCUGGGAACUAAUUUGUAUGCGAAAGUAUAUUGAUUAGUUUUGGAGUACUCGUGGUCG
In a few lines: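 Fitness was computed with DiMSum as the error-weighted combination of replicate fold changes, kanamycin versus none, each normalised to wild type. The library randomised all eight intron nucleotides of the P1ex region, with the intron placed in the knt kanamycin-resistance gene on pET-22b(+) in E. coli BL21(DE3). Six replicate transformations were grown overnight at 37°C or 30°C on LB agar with or without 25 μg/mL kanamycin, plus 100 μg/mL carbenicillin, 50 μM IPTG and 0.2% rhamnose. Pooled colonies were amplicon-sequenced on an Illumina HiSeq 2500.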

Take GCCAAGCAAUAUUACGCUGA: the “self-splicing fitness (ln)” value is -1.4 ± 0.1 (30 °C) and -0.943 ± 0.15 (37 °C).
On the same counts, the results for AUUUAGCAAUAUUACGCAGA are -2.07 ± 0.3 and -1.07 ± 0.19.
As to CAACAGCAAUAUUACGUGUA, the “self-splicing fitness (ln)” value (30 °C) was -2.41 ± 0.076 and the “self-splicing fitness (ln)” value (37 °C) was -1.76 ± 0.075.
The corresponding values for UAAAAGCAAUAUUACGAUAA are -0.739 ± 0.077 and -0.348 ± 0.1.
With CUUGAGCAAUAUUACGCUAU, the “self-splicing fitness (ln)” value reads like this: (30 °C) -3.44 ± 0.34; (37 °C) -2.58 ± 0.49.
On to GGCCAGCAAUAUUACGAAUG, for which the “self-splicing fitness (ln)” value is -4.74 ± 0.39 (30 °C) and -2.17 ± 0.22 (37 °C).
On the same counts, the results for CGUUAGCAAUAUUACGAUAG are -0.0326 ± 0.15 and -0.211 ± 0.14.
Regarding GCGGAGCAAUAUUACGUACU, the “self-splicing fitness (ln)” value was -1.85 ± 0.21 (30 °C) and -1.46 ± 0.22 (37 °C).
In the case of AUCAAGCAAUAUUACGAGUA, the “self-splicing fitness (ln)” value is, setting by setting: (30 °C) -1.56 ± 0.11; (37 °C) -0.436 ± 0.1.
In the case of GCUCAGCAAUAUUACGAUGC, the “self-splicing fitness (ln)” value by setting is: (30 °C) -1.47 ± 0.12; (37 °C) -0.954 ± 0.15.
On the same counts, the results for CCCGAGCAAUAUUACGUCAU are -3.95 ± 0.31 and -2.99 ± 0.26.
Turning to CAGGAGCAAUAUUACGCGUU, the “self-splicing fitness (ln)” value is -3.4 ± 0.17 (30 °C) and -2.01 ± 0.19 (37 °C).
The corresponding values for ACCCAGCAAUAUUACGUAUA are -2.2 ± 0.092 and -1.2 ± 0.085.
On the same counts, the results for CACGAGCAAUAUUACGCUGG are -3.66 ± 0.16 and -2.32 ± 0.16.
On the same counts, the results for AAUCAGCAAUAUUACGAACC are -0.433 ± 0.11 and 0.499 ± 0.18.
CCGAAGCAAUAUUACGGAUG: the “self-splicing fitness (ln)” value is -2.94 ± 0.19 (30 °C) and -0.504 ± 0.095 (37 °C).
The corresponding values for GCAUAGCAAUAUUACGACUA are -0.161 ± 0.23 and 0.00165 ± 0.2.
On the same counts, the results for CUGGAGCAAUAUUACGGCAA are -2.52 ± 0.25 and -2.75 ± 0.3.
For the sequence CUCAAGCAAUAUUACGGCUA, the “self-splicing fitness (ln)” value (37 °C) was -2.22 ± 0.35.
Consider CUUGAGCAAUAUUACGGGCA, for which the “self-splicing fitness (ln)” value by setting is: (30 °C) -3.94 ± 0.35; (37 °C) -1.91 ± 0.21.
CCACAGCAAUAUUACGCCAG: the “self-splicing fitness (ln)” value (30 °C) was -2.56 ± 0.15 and the “self-splicing fitness (ln)” value (37 °C) was -1.07 ± 0.14.
On the same counts, the results for GGUUAGCAAUAUUACGCGAG are -1.9 ± 0.2 and -0.416 ± 0.13.
On to CCAAAGCAAUAUUACGACAC, for which the “self-splicing fitness (ln)” value (37 °C) was -3.02 ± 0.25.
With UUACAGCAAUAUUACGAUCG, the “self-splicing fitness (ln)” value was -0.32 ± 0.09 (30 °C) and -0.268 ± 0.11 (37 °C).
On the same counts, the results for CAGGAGCAAUAUUACGUGUG are -2.56 ± 0.13 and -0.614 ± 0.1.
On the same counts, the results for CCAGAGCAAUAUUACGCGAA are -4.06 ± 0.4 and -2.15 ± 0.29.
On the same counts, the results for CAGCAGCAAUAUUACGGCGA are -0.356 ± 0.11 and -0.114 ± 0.12.
For AAGGAGCAAUAUUACGCCGA, the “self-splicing fitness (ln)” value (30 °C) is -2.33 ± 0.18 and the “self-splicing fitness (ln)” value (37 °C) was -0.979 ± 0.26.
For CGCUAGCAAUAUUACGCUAU, the “self-splicing fitness (ln)” value (37 °C) was -2.46 ± 0.27.
With ACUAAGCAAUAUUACGAUCA, the “self-splicing fitness (ln)” value is -1.15 ± 0.072 (30 °C) and -0.58 ± 0.073 (37 °C).
With CCCAAGCAAUAUUACGGAAC, the “self-splicing fitness (ln)” value was -3.54 ± 0.21 (30 °C) and -2.62 ± 0.25 (37 °C).
On the same counts, the results for CGAGAGCAAUAUUACGUAAG are -2.59 ± 0.13 and -1.26 ± 0.15.
The corresponding values for UUGCAGCAAUAUUACGAGAU are -3.6 ± 0.34 and -2.64 ± 0.36.
On the same counts, the results for GUUCAGCAAUAUUACGGAAG are -0.667 ± 0.088 and 0.566 ± 0.12.
In the case of CAUUAGCAAUAUUACGUCUU, the “self-splicing fitness (ln)” value is -3.25 ± 0.27 (30 °C) and -2.33 ± 0.21 (37 °C).
On the same counts, the results for AGAUAGCAAUAUUACGAGAG are -3.7 ± 0.29 and -2.37 ± 0.25.
The corresponding values for GAUCAGCAAUAUUACGAUUU are -0.286 ± 0.085 and 0.0945 ± 0.1.
On the same counts, the results for AUAGAGCAAUAUUACGUUUU are -1.43 ± 0.084 and -1.3 ± 0.14.
For the sequence UCGCAGCAAUAUUACGCUGG, the “self-splicing fitness (ln)” value (30 °C) is -1.76 ± 0.16 and the “self-splicing fitness (ln)” value (37 °C) was -2 ± 0.21.
On the same counts, the results for AUUUAGCAAUAUUACGAGUG are -2.59 ± 0.18 and -0.743 ± 0.18.
GCCCAGCAAUAUUACGCUCA: the “self-splicing fitness (ln)” value is, setting by setting: (30 °C) -0.789 ± 0.08; (37 °C) -0.055 ± 0.1.
The corresponding values for CUGAAGCAAUAUUACGCGGU are -1.86 ± 0.08 and -0.746 ± 0.081.
With GAUGAGCAAUAUUACGCGGG, the “self-splicing fitness (ln)” value is -3.55 ± 0.42 (30 °C) and -3.59 ± 0.47 (37 °C).
On the same counts, the results for GAGGAGCAAUAUUACGCCCA are 0.0821 ± 0.26 and -0.507 ± 0.37.
Regarding AGAAAGCAAUAUUACGAUAC, the “self-splicing fitness (ln)” value was -1.78 ± 0.14 (30 °C) and -1.54 ± 0.19 (37 °C).
On the same counts, the results for AAAAAGCAAUAUUACGUUAG are -3.37 ± 0.17 and -2.61 ± 0.16.
On the same counts, the results for AUAUAGCAAUAUUACGGGAA are -2.9 ± 0.2 and -2.23 ± 0.19.
Regarding GCUUAGCAAUAUUACGUAGA, the “self-splicing fitness (ln)” value (30 °C) is -0.53 ± 0.076 and the “self-splicing fitness (ln)” value (37 °C) stood at 0.396 ± 0.093.
On the same counts, the results for CAUCAGCAAUAUUACGCGGU are -3.35 ± 0.18 and -2.39 ± 0.22.
The corresponding values for UAAGAGCAAUAUUACGCGCA are -1.81 ± 0.2 and -1.16 ± 0.3.
On to CUGGAGCAAUAUUACGAAUG, for which the “self-splicing fitness (ln)” value was -1.88 ± 0.12 (30 °C) and 0.0741 ± 0.15 (37 °C).
The corresponding values for GAUUAGCAAUAUUACGCGCC are -1.37 ± 0.38 and -1.2 ± 0.34.
Regarding CGCUAGCAAUAUUACGGAAG, the “self-splicing fitness (ln)” value was -1.7 ± 0.16 (30 °C) and 0.348 ± 0.17 (37 °C).
The corresponding values for UGCUAGCAAUAUUACGACAG are -0.698 ± 0.059 and 0.337 ± 0.093.
On the same counts, the results for CGAUAGCAAUAUUACGAGGU are -2.8 ± 0.22 and -3.01 ± 0.34.
On the same counts, the results for GCGGAGCAAUAUUACGCGUU are -2.26 ± 0.24 and -1.23 ± 0.22.
For GCCGAGCAAUAUUACGCCGU, the “self-splicing fitness (ln)” value runs as follows: (30 °C) -3.28 ± 0.29; (37 °C) -1.75 ± 0.19.
The corresponding values for AUCAAGCAAUAUUACGUAAG are -2.05 ± 0.097 and -1.45 ± 0.13.
On the same counts, the results for AUGCAGCAAUAUUACGACCC are -0.995 ± 0.2 and -0.303 ± 0.31.
The corresponding values for UCCGAGCAAUAUUACGUCUU are -3.54 ± 0.25 and -1.62 ± 0.2.
For the sequence GCACAGCAAUAUUACGUUGG, the “self-splicing fitness (ln)” value was -1.6 ± 0.058 (30 °C) and -0.74 ± 0.071 (37 °C).
Take GUGCAGCAAUAUUACGAAUA: the “self-splicing fitness (ln)” value reads like this: (30 °C) -1.79 ± 0.14; (37 °C) -1.07 ± 0.17.
On to CCUGAGCAAUAUUACGUGGG, for which the “self-splicing fitness (ln)” value was -3.25 ± 0.15 (30 °C) and -2.85 ± 0.2 (37 °C).
Regarding ACUGAGCAAUAUUACGUAGU, the “self-splicing fitness (ln)” value is, setting by setting: (30 °C) -3.48 ± 0.19; (37 °C) -2.41 ± 0.25.
On the same counts, the results for CGAAAGCAAUAUUACGUAUA are -3.52 ± 0.17 and -2.99 ± 0.21.
The corresponding values for CCGUAGCAAUAUUACGCAGA are -2.96 ± 0.25 and -2.74 ± 0.24.
On to ACGUAGCAAUAUUACGUCUC, for which the “self-splicing fitness (ln)” value (30 °C) is -2.84 ± 0.19 and the “self-splicing fitness (ln)” value (37 °C) is -3.13 ± 0.32.
On the same counts, the results for ACGCAGCAAUAUUACGUUUA are -2.58 ± 0.12 and -1.42 ± 0.095.
The corresponding values for GAACAGCAAUAUUACGGUUG are -2 ± 0.1 and -0.692 ± 0.12.
The corresponding values for GGAGAGCAAUAUUACGUUAG are -3.5 ± 0.23 and -1.54 ± 0.41.
As for CUAGAGCAAUAUUACGCGCU, the “self-splicing fitness (ln)” value is -3.47 ± 0.23 (30 °C) and -2.19 ± 0.27 (37 °C).
On the same counts, the results for CAUCAGCAAUAUUACGUCGC are -3.05 ± 0.18 and -2.11 ± 0.23.
For GUGGAGCAAUAUUACGGAAA, the “self-splicing fitness (ln)” value (30 °C) was -1.87 ± 0.46.
Consider AUCCAGCAAUAUUACGGACU, for which the “self-splicing fitness (ln)” value is -0.507 ± 0.068 (30 °C) and 0.126 ± 0.082 (37 °C).
The corresponding values for ACAUAGCAAUAUUACGACCG are -0.782 ± 0.098 and -0.154 ± 0.14.
In the case of AUCGAGCAAUAUUACGUAAC, the “self-splicing fitness (ln)” value (30 °C) is -3.15 ± 0.43.

Source of the values: the supplement of paper PMC7877785.
